Assay results from patent publication US20240238445A1, “INHIBITORS AND USES THEREOF” (NEURACLE SCIENCE CO., LTD., priority 2021, published 2024).
Ends that are not written are not given here.

What was measured:
[1] = target: binding of FAM19A5 protein to full-length ectodomain of the LRRC4B protein (amino acids 36-576 of SEQ ID NO: 2) (Homo sapiens, UniProt Q7Z5A7); experiment: Competitive inhibition assay, plate coated with full-length ectodomain of LRRC4B (amino acids 36-576); settings: for inhibition of interaction between FAM19A5 and the coated LRRC4B protein fragments (in words): statement covers both coats, LRRC4B (36-576) and LRRC4B (453-576)
binding of FAM19A5 protein to full-length ectodomain of the LRRC4B protein (amino acids 36-576 of SEQ ID NO: 2), sequence (Q7Z5A7 44-132): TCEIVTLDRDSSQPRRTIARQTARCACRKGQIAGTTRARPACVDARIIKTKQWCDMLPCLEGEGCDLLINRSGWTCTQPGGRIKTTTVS
Experimental: Next, to further assess the role that the binding domain of the LRRC4B protein has on the interaction between FAM19A5 protein and members of the LRRC4 protein family, a competitive inhibition assay was used to determine whether different LRRC4B deletion constructs from Example 2 could inhibit the binding of FAM19A5 to the full-length ectodomain of the LRRC4B protein (i.e., amino acids 36-576 of SEQ ID NO: 2; SEQ ID NO: 5). Briefly, 100 nM of the full-length ectodomain of the LRRC4B protein was used to coat a plate, and then recombinant FAM19A5 protein (5 ng/mL) was added to the plate in combination with the following LRRC4B deletion constructs (increasing concentrations): (1) LRRC4B (453-576) (i.e., construct #11 in Table 6); (2) LRRC4B (453-576) mutant (comprises alanine substitutions at positions 488 and 489 of SEQ ID NO: 2; SEQ ID NO: 16); (3) LRRC4B (484-576) (i.e., construct #12 in Table 6); (4) LRRC4B (482-576); (5) LRRC4B (482-497); and (6) LRRC4B (498-576). The plates were incubated at 37° C., and then, the amount of FAM19A5 bound to the coated LRRC4B ectodomain protein was measured using HRP-conjugated anti-FAM19A5 (1-65) antibody.
As described in Example 3, there appeared to be much similarity in the binding domains of the different members of the LRRC4 family. […] Then, recombinant FAM19A5 protein (5 ng/mL) was added in combination with one of the following: (i) LRRC4B (484-576) protein fragment, (ii) LRRC4B (453-576, AA) protein fragment, and (iii) synthetic FB-20 peptide. The plates were incubated at 37° C., and then, the amount of FAM19A5 protein bound to the coated LRRC4, LRRC4B, or LRRC4C proteins was measured using anti-FAM19A5 (1-65) antibody.
(§1) Next, to assess whether polypeptides comprising the binding domains of LRRC4 or LRRC4C proteins can have similar inhibitory effects on LRRC4B protein binding, the following synthetic peptides were constructed: (1) FBC4-23 (contains the binding domain of the LRRC4 protein, i.e., YSFFTTVTVETTE); and (2) FBC4C-23 (contains the binding domain of the LRRC4C protein, i.e., FSYFSTVTVETME). Then, the ability of the peptides to inhibit the binding of LRRC4 protein family members to FAM19A5 protein was assessed using a competitive inhibition assay. Briefly, plates were coated with 100 nM of either LRRC4B protein fragment #1 (amino acids 36-576 of SEQ ID NO: 2; SEQ ID NO: 5) or LRRC4B protein fragment #2 (amino acids 453-576 of SEQ ID NO: 2; SEQ ID NO: 7). Then, recombinant FAM19A5 protein (5 ng/ml for plates coated with LRRC4B fragment #1; and 1 ng/mL for plates coated with LRRC4B fragment #2) was added to the plates in combination with 20 nM of the FBC4-23, FBC4C-23, and FB-20 peptides. The plates were incubated at 37° C. and then, the amount of FAM19A5 protein bound to the coated LRRC4B protein fragments was assessed using HRP-conjugated anti-FAM19A5 (1-65) antibody.
Next, to determine the minimal sequence required to inhibit the interaction of FAM19A5 and members of the LRRC4 protein family, ten FB-20 peptide variants were constructed by serially deleting one or more amino acids from the N-terminus or C-terminus of the FB-20 peptide. Then, a competitive inhibition assay was used to assess the ability of the different FB-20 peptide variants to inhibit the interaction between FAM19A5 and LRRC4B protein. Again, plates were coated with 100 nM of either LRRC4B protein fragment #1 (amino acids 36-576 of SEQ ID NO: 2; SEQ ID NO: 5) or LRRC4B protein fragment #2 (amino acids 453-576 of SEQ ID NO: 2; SEQ ID NO: 7). Then, recombinant FAM19A5 protein (5 ng/ml for plates coated with LRRC4B fragment #1; and 1 ng/mL for plates coated with LRRC4B fragment #2) was added to the plates in combination with 20 nM of the different peptides described above. After incubating the plates at 37° C., the amount of FAM19A5 protein bound to the coated LRRC4B protein fragments was assessed using HRP-conjugated anti-FAM19A5 (1-65) antibody. […]

[2] = target: binding of FAM19A5 protein to LRRC4B (amino acids 453-576)-hFc (Homo sapiens, UniProt Q7Z5A7); experiment: Competitive inhibition assay, plate coated with LRRC4B (amino acids 453-576)-hFc, peptides at 20 nM
binding of FAM19A5 protein to LRRC4B (amino acids 453-576)-hFc, sequence (Q7Z5A7 44-132): as above
Source text: as §1
Next, to determine the minimal sequence required to inhibit the interaction of FAM19A5 and members of the LRRC4 protein family, ten FB-20 peptide variants were constructed by serially deleting one or more amino acids from the N-terminus or C-terminus of the FB-20 peptide. Then, a competitive inhibition assay was used to assess the ability of the different FB-20 peptide variants to inhibit the interaction between FAM19A5 and LRRC4B protein. Again, plates were coated with 100 nM of either LRRC4B protein fragment #1 (amino acids 36-576 of SEQ ID NO: 2; SEQ ID NO: 5) or LRRC4B protein fragment #2 (amino acids 453-576 of SEQ ID NO: 2; SEQ ID NO: 7). Then, recombinant FAM19A5 protein (5 ng/ml for plates coated with LRRC4B fragment #1; and 1 ng/mL for plates coated with LRRC4B fragment #2) was added to the plates in combination with 20 nM of the different peptides described above. After incubating the plates at 37° C., the amount of FAM19A5 protein bound to the coated LRRC4B protein fragments was assessed using HRP-conjugated anti-FAM19A5 (1-65) antibody.
To identify the critical amino acid residues, multiple FB-20 peptide mutants were constructed, in which the individual residues of the core binding domain (i.e., YTYFTTVTVETLE; SEQ ID NO: 15) were substituted with alanine (A) or asparagine (N). Then, the ability of these FB-20 peptide mutants to inhibit the interaction between LRRC4B and FAM19A5 proteins was assessed, as described in Examples 3 and 4.

[3] = Table 10, alanine/asparagine mutants
[4] = Table 8, 20 nM peptide, FAM19A5 5 ng/ml
[5] = Table 8, 20 nM peptide, FAM19A5 1 ng/mL

| Substance | Inhibition rate (%) LRRC4B (amino acids 36-576)-hFc [1, 3] | Inhibition rate (%) LRRC4B (amino acids 453-576)-hFc [2, 3] | other results |
| --- | --- | --- | --- |
| GYTYFTTVTVEALETQPGEE [FB-20[A11]] | 73.4% | 50.3% | – |
| GYTYFNTVTVETLETQPGEE [FB-20[N5]] | 56.1% | 30.5% | – |
| NYSFFTTVTVETTEISPEDTTRK [FBC4-23] | – | – | inhibition of interaction between FAM19A5 and the coated LRRC4B protein fragments (in words) ([1]; 20 nM peptide): significantly decreased the interaction; Inhibition rate (%) LRRC4B (amino acids 36-576)-hFc [1, 4]: 64.1%; Inhibition rate (%) LRRC4B (amino acids 453-576)-hFc [2, 5]: 40.4% |
| LRRC4B (482-497): LRRC4B ectodomain fragment, amino acids 482-497 of SEQ ID NO: 2 (GGYTYFTTVTVETLET; also: dimerising Fc or GST fusion left off) | – | – | inhibition of FAM19A5 binding to coated full-length LRRC4B ectodomain protein (in words) ([1]; increasing concentrations, FAM19A5 5 ng/mL, 100 nM coat): also able to inhibit the interaction |
| GYTNFTTVTVETLETQPGEE [FB-20[N3]] | −5.0% | 4.0% | – |
| GYTYFTTVNVETLETQPGEE [FB-20[N8]] | 2.9% | −2.4% | – |
| GYTYFTTVTNETLETQPGEE [FB-20[N9]] | 17.5% | 6.5% | – |
| GYTYFTTVTAETLETQPGEE [FB-20[A9]] | 21.5% | 3.8% | – |
| KNTYFTTVTVETNKETQ [FB-m10dN] | – | – | inhibition of interaction between FAM19A5 and the coated LRRC4B protein fragments (in words) ([1]; 20 nM peptide): failed to significantly inhibit; Inhibition rate (%) LRRC4B (amino acids 36-576)-hFc ([1]; Table 9, deletion variants, 20 nM peptide, FAM19A5 5 ng/ml): 7.7%; Inhibition rate (%) LRRC4B (amino acids 453-576)-hFc ([2]; Table 9, deletion variants, 20 nM peptide, FAM19A5 1 ng/mL): 0.0% |
| GYNYFTTVTVETLETQPGEE [FB-20[N2]] | −0.7% | −2.0% | – |
| NFSYFSTVTVETMEPSQDERTTR [FBC4C-23] | – | – | inhibition of interaction between FAM19A5 and the coated LRRC4B protein fragments (in words) ([1]; 20 nM peptide): significantly decreased the interaction; Inhibition rate (%) LRRC4B (amino acids 36-576)-hFc [1, 4]: 65.7%; Inhibition rate (%) LRRC4B (amino acids 453-576)-hFc [2, 5]: 40.4% |

Further lines, with some results ahead:

| Inhibition rate (%) LRRC4B (amino acids 36-576)-hFc [1, 3] | Inhibition rate (%) LRRC4B (amino acids 453-576)-hFc [2, 3] | Substance | other results |
| --- | --- | --- | --- |
| 26.8% | 7.9% | GYTYFTTATVETLETQPGEE [FB-20[A7]] | – |
| 17.2% | 3.6% | GATYFTTVTVETLETQPGEE [FB-20[A1]] | – |
| 17.9% | 11.0% | GYTYFTAVTVETLETQPGEE [FB-20[A6]] | – |
| 51.4% | 27.2% | GYTYFTTVTVETLATQPGEE [FB-20[A13]] | – |
